The record followed here is the supplement of paper PMC11316812.

± gives the standard deviation of the averaged measurements.

One data set has as its system MCF7. The data set is described as follows: percentage of EdU-negative (G0-arrested) nuclei per well, 72 h; higher = more G0 arrest. The settings on record: reference: sequence is the full UniProt precursor, the tested protein was the secreted form or ectodomain.
The next data set deals with hTERT-HMEC. The data set is described as above. The settings on record: reference: sequence is the full UniProt precursor, the tested protein was the secreted form or ectodomain.
Where [1] appears, read: protein concentration 0.0225 µM.
Where [2] appears, read: protein concentration 0.0185 µM.
Setting [3] is: protein concentration 0.0187725 µM.
The mark [4] stands for this setting: protein concentration 0.187725 µM.
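Note: secreted proteins added to cultured cells, EdU pulse at the end, nuclei found by Hoechst imaging, EdU status from nuclear versus surrounding ring intensity ratio, PBS as neutral control.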

Regarding “MAQLWLSCFLLPALVVSVAANVAPKFLANMTSVILPEDLPVGAQAFWLVAEDQDNDPLTYGMSGPNAYFFAVTPKTGEVKLASALDYETLYTFKVTISVSDPYIQVQREMLVIVEDRNDNAPVFQNTAFSTSINETLPVGSVVFSVLAVDKDMGSAGMVVYSIEKVIPSTGDSEHLFRILANGSIVLNGSLSYNNKSAFYQLELKACDLGGMYHNTFTIQCSLPVFLSISVVDQPDLDPQFVREFYSASVAEDAAKGTSVLTVEAVDGDKGINDPVIYSISYSTRPGWFDIGADGVIRVNGSLDREQLLEADEEVQLQVTATETHLNIYGQEAKVSIWVTVRVMDVNDHKPEFYNCSLPACTFTPEEAQVNFTGYVDEHASPRIPIDDLTMVVYDPDKGSNGTFLLSLGGPDAEAFSVSPERAVGSASVQVLVRVSALVDYERQTAMAVQVVATDSVSQNFSVAMVTIHLRDINDHRPTFPQSLYVLTVPEHSATGSVVTDSIHATDPDTGAWGQITYSLLPGNGADLFQVDPVSGTVTVRNGELLDRESQAVYYLTLQATDGGNLSSSTTLQIHLLDINDNAPVVSGSYNIFVQEEEGNVSVTIQAHDNDEPGTNNSRLLFNLLPGPYSHNFSLDPDTGLLRNLGPLDREAIDPALEGRIVLTVLVSDCGEPVLGTKVNVTITVEDINDNLPIFNQSSYNFTVKEEDPGVLVGVVKAWDADQTEANNRISFSLSGSGANYFMIRGLVLGAGWAEGYLRLPPDVSLDYETQPVFNLTVSAENPDPQGGETIVDVCVNVKDVNDNPPTLDVASLRGIRVAENGSQHGQVAVVVASDVDTSAQLEIQLVNILCTKAGVDVGSLCWGWFSVAANGSVYINQSKAIDYEACDLVTLVVRACDLATDPGFQAYSNNGSLLITIEDVNDNAPYFLPENKTFVIIPELVLPNREVASVRARDDDSGNNGVILFSILRVDFISKDGATIPFQGVFSIFTSSEADVFAGSIQPVTSLDSTLQGTYQVTVQARDRPSLGPFLEATTTLNLFTVDQSYRSRLQFSTPKEEVGANRQAINAALTQATRTTVYIVDIQDIDSAARARPHSYLDAYFVFPNGSALTLDELSVMIRNDQDSLTQLLQLGLVVLGSQESQESDLSKQLISVIIGLGVALLLVLVIMTMAFVCVRKSYNRKLQAMKAAKEARKTAAGVMPSAPAIPGTNMYNTERANPMLNLPNKDLGLEYLSPSNDLDSVSVNSLDDNSVDVDKNSQEIKEHRPPHTPPEPDPEPLSVVLLGRQAGASGQLEGPSYTNAGLDTTDL [Q9BYE9]”, the “percentage of EdU-negative” value in the data set with MCF7 (setting [1]) was 26.56 ± 0.19%; with MCF7 (protein concentration 0.225 µM), 26.4 ± 2.1%; in the data set on hTERT-HMEC (setting [1]), 4.86 ± 0.083%; in the data set on hTERT-HMEC (protein concentration 0.225 µM), 7.42 ± 0.98%.

On to “MAREMTILGSAVLTLLLAGYLAQQYLPLPTPKVIGIDLGTTYCSVGVFFPGTGKVKVIPDENGHISIPSMVSFTDNDVYVGYESVELADSNPQNTIYDAKRFIGKIFTAEELEAEIGRYPFKVLNKNGMVEFSVTSNETITVSPEYVGSRLLLKLKEMAEAYLGMPVANAVISVPAEFDLKQRNSTIEAANLAGLKILRVINEPTAAAMAYGLHKADVFHVLVIDLGGGTLDVSLLNKQGGMFLTRAMSGNNKLGGQDFNQRLLQYLYKQIYQTYGFVPSRKEEIHRLRQAVEMVKLNLTLHQSAQLSVLLTVEEQDRKEPHSSDTELPKDKLSSADDHRVNSGFGRGLSDKKSGESQVLFETEISRKLFDTLNEDLFQKILVPIQQVLKEGHLEKTEIDEVVLVGGSTRIPRIRQVIQEFFGKDPNTSVDPDLAVVTGVAIQAGIDGGSWPLQVSALEIPNKHLQKTNFN”, for which the “percentage of EdU-negative” value in the data set with MCF7 (setting [2]) was determined as 25 ± 2%; with MCF7 (protein concentration 0.185 µM), 25.9 ± 0.78%; in the data set on hTERT-HMEC (setting [2]) it was 4.53 ± 0.31%; in the data set on hTERT-HMEC (protein concentration 0.185 µM), 5.54 ± 0.38%.

As for “MKKFFTVAILAGSVLSTAHGSLLNLKAMVEAVTGRSAILSFVGYGCYCGLGGRGQPKDEVDWCCHAHDCCYQELFDQGCHPYVDHYDHTIENNTEIVCSDLNKTECDKQTCMCDKNMVLCLMNQTYREEYRGFLNVYCQGPTPNCSIYEPPPEEVTCSHQSPAPPAPP [Q9BZM2]”, the “percentage of EdU-negative” value with MCF7 (setting [1]) amounted to 24.06 ± 0.22%; in the data set on MCF7 (protein concentration 0.225 µM) it was 26 ± 1.2%; in the data set with hTERT-HMEC (setting [1]), 5.18 ± 0.43%; in the data set with hTERT-HMEC (protein concentration 0.225 µM), 5.34 ± 1.1%.

Take “MKEYVLLLFLALCSAKPFFSPSHIALKNMMLKDMEDTDDDDDDDDDDDDDDEDNSLFPTREPRSHFFPFDLFPMCPFGCQCYSRVVHCSDLGLTSVPTNIPFDTRMLDLQNNKIKEIKENDFKGLTSLYGLILNNNKLTKIHPKAFLTTKKLRRLYLSHNQLSEIPLNLPKSLAELRIHENKVKKIQKDTFKGMNALHVLEMSANPLDNNGIEPGAFEGVTVFHIRIAEAKLTSVPKGLPPTLLELHLDYNKISTVELEDFKRYKELQRLGLGNNKITDIENGSLANIPRVREIHLENNKLKKIPSGLPELKYLQIIFLHSNSIARVGVNDFCPTVPKMKKSLYSAISLFNNPVKYWEMQPATFRCVLSRMSVQLGNFGM [Q9BXN1]”: the “percentage of EdU-negative” value with MCF7 (setting [3]) is 26.18 ± 0.19%; in the data set on MCF7 (setting [4]) it was 26.9 ± 3.7%; with hTERT-HMEC (setting [3]) it was 4.7 ± 0.51%; with hTERT-HMEC (setting [4]), 4.97 ± 0.19%.

With “MSALWLLLGLLALMDLSESSNWGCYGNIQSLDTPGASCGIGRRHGLNYCGVRASERLAEIDMPYLLKYQPMMQTIGQKYCMDPAVIAGVLSRKSPGDKILVNMGDRTSMVQDPGSQAPTSWISESQVSQTTEVLTTRIKEIQRRFPTWTPDQYLRGGLCAYSGGAGYVRSSQDLSCDFCNDVLARAKYLKRHGF [Q8N1E2]”, the “percentage of EdU-negative” value in the data set on MCF7 (setting [1]) was found to be 25.6 ± 2%; in the data set on MCF7 (protein concentration 0.225 µM) it was 25.2 ± 0.58%; in the data set on hTERT-HMEC (setting [1]), 4.76 ± 1.4%; in the data set with hTERT-HMEC (protein concentration 0.225 µM) it was 6.97 ± 0.29%.
